Laboratory results as given in US9260500B2, “Peptide and use thereof” (Takeda Pharmaceutical Company Limited, priority 2009, dated 2016).
Starred links: 1 amine or outer side, 2 acyl side, 3 side chain; linkers in the order of their positions; H or OH if unused. Non-standard residues stand in square brackets, D forms with d. Ala(piperidin-4-yl) = O=C([C@H](CC1CCN([*:3])CC1)N[*:1])[*:2]; 3Pal = N[C@@H](Cc1cccnc1)C(=O)O; 4Pal = N[C@@H](Cc1ccncc1)C(=O)O; Cha = N[C@@H](CC1CCCCC1)C(=O)O; hSer = N[C@@H](CCO)C(=O)O; Iva = CC[C@](C)(N)C(=O)O; Nle = CCCC[C@H](N)C(=O)O; Orn = NCCC[C@H](N)C(=O)O; Nva = CCC[C@H](N)C(=O)O; Nar = not defined here; Aib = CC(C)(N)C(=O)O

How the values were obtained:
human Y2 receptor [1] = target: T1, human Y2 receptor (Homo sapiens, UniProt P49146); test: Receptor Binding Assay (RBA) for Human Y2, [125I]-PYY displacement on hY2R/CHO membrane fraction; conditions: IC50 of test compound/IC50 of PYY(3-36) (PYY(3-36) taken as 1)
T1 construct: expressed in transfected cells; membrane fraction
T1 sequence (P49146 1-381): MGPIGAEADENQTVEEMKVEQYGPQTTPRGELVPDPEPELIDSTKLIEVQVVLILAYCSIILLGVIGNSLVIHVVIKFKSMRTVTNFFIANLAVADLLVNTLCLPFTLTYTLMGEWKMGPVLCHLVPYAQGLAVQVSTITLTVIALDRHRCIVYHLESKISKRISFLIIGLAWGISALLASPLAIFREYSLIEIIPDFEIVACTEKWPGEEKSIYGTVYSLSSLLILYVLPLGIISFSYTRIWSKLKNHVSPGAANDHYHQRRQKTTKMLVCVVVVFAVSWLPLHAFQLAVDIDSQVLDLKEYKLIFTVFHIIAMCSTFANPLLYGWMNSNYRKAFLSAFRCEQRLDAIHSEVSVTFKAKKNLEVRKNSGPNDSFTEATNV
In short: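 hY2R stably expressed in CHO/dhfr− cells; membrane fraction prepared from cells disrupted in 10 mM NaHCO3, 5 mM EDTA buffer with protease inhibitors. Binding read as displacement of [125I]-PYY.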

human Y2 receptor [2] = target: T1, human Y2 receptor; test: Human Y2 Receptor G Protein Binding Assay (GBA), [35S]GTPγS; format: biochemical; conditions: EC50 of test compound/EC50 of PYY(3-36) (PYY3-36 taken as 1), hY2R/CHO membrane fraction
In short: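 Agonism measured as [35S]GTPγS binding, read by GF/C filtration and scintillation counting after 120 min at room temperature, using human Y2 membranes at 1 μg protein/mL in pH 7.4 Tris/MgCl2/NaCl/GDP buffer. Compound serially diluted 100 μM–1 nM; EC50 normalized to PYY(3-36) (ratio = compound/PYY).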

| Substance | RBA IC50 Ratio (human Y2 receptor [1]) | GBA EC50 Ratio (human Y2 receptor [2]) |
| --- | --- | --- |
| Ac-[D-Pro24, Hse26, Cha27,36, Aib28,31]-PYY(23-36) (Ac-S[dP]R[hSer][Cha][Aib]NL[Aib]TRQR[Cha]-NH2; SMILES CC(=O)N[C@@H](CO)C(=O)N1CCC[C@@H]1C(=O)N[C@@H](CCCNC(=N)N)C(=O)N[C@@H](CCO)C(=O)N[C@@H](CC1CCCCC1)C(=O)NC(C)(C)C(=O)N[C@@H](CC(N)=O)C(=O)N[C@@H](CC(C)C)C(=O)NC(C)(C)C(=O)N[C@H](C(=O)N[C@@H](CCCNC(=N)N)C(=O)N[C@@H](CCC(N)=O)C(=O)N[C@@H](CCCNC(=N)N)C(=O)N[C@@H](CC1CCCCC1)C(N)=O)[C@@H](C)O) [compound No. 128] | 11 | 5.4 |
| Ac-[D-Pro24, Iva25, Cha27,28,36, Aib31]-PYY(23-36) (Ac-S[dP][Iva]H[Cha][Cha]NL[Aib]TRQR[Cha]-NH2; SMILES CC[C@](C)(NC(=O)[C@H]1CCCN1C(=O)[C@H](CO)NC(C)=O)C(=O)N[C@@H](Cc1c[nH]cn1)C(=O)N[C@@H](CC1CCCCC1)C(=O)N[C@@H](CC1CCCCC1)C(=O)N[C@@H](CC(N)=O)C(=O)N[C@@H](CC(C)C)C(=O)NC(C)(C)C(=O)N[C@H](C(=O)N[C@@H](CCCNC(=N)N)C(=O)N[C@@H](CCC(N)=O)C(=O)N[C@@H](CCCNC(=N)N)C(=O)N[C@@H](CC1CCCCC1)C(N)=O)[C@@H](C)O) [compound No. 177] | 4.5 | 3.7 |
| Ac-[D-Pro24, Iva25, Cha27,36, Aib28,31, Lys30]-PYY(23-36) (Ac-S[dP][Iva]H[Cha][Aib]NK[Aib]TRQR[Cha]-NH2; SMILES CC[C@](C)(NC(=O)[C@H]1CCCN1C(=O)[C@H](CO)NC(C)=O)C(=O)N[C@@H](Cc1c[nH]cn1)C(=O)N[C@@H](CC1CCCCC1)C(=O)NC(C)(C)C(=O)N[C@@H](CC(N)=O)C(=O)N[C@@H](CCCCN)C(=O)NC(C)(C)C(=O)N[C@H](C(=O)N[C@@H](CCCNC(=N)N)C(=O)N[C@@H](CCC(N)=O)C(=O)N[C@@H](CCCNC(=N)N)C(=O)N[C@@H](CC1CCCCC1)C(N)=O)[C@@H](C)O) [compound No. 239] | 8.8 | 5.2 |
| Ac-[D-Pro24, Iva25, Pya(4)26, Cha27,36, Nva28, Aib31, Lys30]-PYY(23-36) (Ac-S[dP][Iva][4Pal][Cha][Nva]NK[Aib]TRQR[Cha]-NH2; SMILES CCC[C@H](NC(=O)[C@H](CC1CCCCC1)NC(=O)[C@H](Cc1ccncc1)NC(=O)[C@](C)(CC)NC(=O)[C@H]1CCCN1C(=O)[C@H](CO)NC(C)=O)C(=O)N[C@@H](CC(N)=O)C(=O)N[C@@H](CCCCN)C(=O)NC(C)(C)C(=O)N[C@H](C(=O)N[C@@H](CCCNC(=N)N)C(=O)N[C@@H](CCC(N)=O)C(=O)N[C@@H](CCCNC(=N)N)C(=O)N[C@@H](CC1CCCCC1)C(N)=O)[C@@H](C)O) [compound No. 352] | 1.6 | 1.3 |
| Ac-[D-Pro24, Iva26, Cha27,28,36, Aib31]-PYY(23-36) (Ac-S[dP]R[Iva][Cha][Cha]NL[Aib]TRQR[Cha]-NH2; SMILES CC[C@](C)(NC(=O)[C@H](CCCNC(=N)N)NC(=O)[C@H]1CCCN1C(=O)[C@H](CO)NC(C)=O)C(=O)N[C@@H](CC1CCCCC1)C(=O)N[C@@H](CC1CCCCC1)C(=O)N[C@@H](CC(N)=O)C(=O)N[C@@H](CC(C)C)C(=O)NC(C)(C)C(=O)N[C@H](C(=O)N[C@@H](CCCNC(=N)N)C(=O)N[C@@H](CCC(N)=O)C(=O)N[C@@H](CCCNC(=N)N)C(=O)N[C@@H](CC1CCCCC1)C(N)=O)[C@@H](C)O) [compound No. 176] | 5.2 | 4.2 |
| Ac-[D-Pro24, Lys(Ac)25, Pya(4)26, Cha27,36, Aib28,31, Lys30]-PYY(23-36) (Ac-S[dP]K(Ac)[4Pal][Cha][Aib]NK[Aib]TRQR[Cha]-NH2; SMILES CC(=O)NCCCC[C@H](NC(=O)[C@H]1CCCN1C(=O)[C@H](CO)NC(C)=O)C(=O)N[C@@H](Cc1ccncc1)C(=O)N[C@@H](CC1CCCCC1)C(=O)NC(C)(C)C(=O)N[C@@H](CC(N)=O)C(=O)N[C@@H](CCCCN)C(=O)NC(C)(C)C(=O)N[C@H](C(=O)N[C@@H](CCCNC(=N)N)C(=O)N[C@@H](CCC(N)=O)C(=O)N[C@@H](CCCNC(=N)N)C(=O)N[C@@H](CC1CCCCC1)C(N)=O)[C@@H](C)O) [compound No. 280] | 6.6 | 4.2 |
| Ac-[D-Pro24, Nar25, Pya(4)26, Cha27,36, Aib28,31, Lys30]-PYY(23-36) (Ac-S[dP][Nar][4Pal][Cha][Aib]NK[Aib]TRQR[Cha]-NH2; reading uncertain) [compound No. 290] | 1.1 | 1.8 |
| Ac-[D-Pro24, Nle25, Pya(4)26, Cha27,28,36, Aib31]-PYY(23-36) (Ac-S[dP][Nle][4Pal][Cha][Cha]NL[Aib]TRQR[Cha]-NH2; SMILES CCCC[C@H](NC(=O)[C@H]1CCCN1C(=O)[C@H](CO)NC(C)=O)C(=O)N[C@@H](Cc1ccncc1)C(=O)N[C@@H](CC1CCCCC1)C(=O)N[C@@H](CC1CCCCC1)C(=O)N[C@@H](CC(N)=O)C(=O)N[C@@H](CC(C)C)C(=O)NC(C)(C)C(=O)N[C@H](C(=O)N[C@@H](CCCNC(=N)N)C(=O)N[C@@H](CCC(N)=O)C(=O)N[C@@H](CCCNC(=N)N)C(=O)N[C@@H](CC1CCCCC1)C(N)=O)[C@@H](C)O) [compound No. 140] | 20 | 2.6 |
| Ac-[D-Pro24, Orn26, Cha27,28,36, Aib31]-PYY(23-36) (Ac-S[dP]R[Orn][Cha][Cha]NL[Aib]TRQR[Cha]-NH2; SMILES CC(=O)N[C@@H](CO)C(=O)N1CCC[C@@H]1C(=O)N[C@@H](CCCNC(=N)N)C(=O)N[C@@H](CCCN)C(=O)N[C@@H](CC1CCCCC1)C(=O)N[C@@H](CC1CCCCC1)C(=O)N[C@@H](CC(N)=O)C(=O)N[C@@H](CC(C)C)C(=O)NC(C)(C)C(=O)N[C@H](C(=O)N[C@@H](CCCNC(=N)N)C(=O)N[C@@H](CCC(N)=O)C(=O)N[C@@H](CCCNC(=N)N)C(=O)N[C@@H](CC1CCCCC1)C(N)=O)[C@@H](C)O) [compound No. 150] | 4.2 | 2.2 |
| Ac-[D-Pro24, Pya(3)26, Cha27,28,36, Aib31]-PYY(23-36) (Ac-S[dP]R[3Pal][Cha][Cha]NL[Aib]TRQR[Cha]-NH2; SMILES CC(=O)N[C@@H](CO)C(=O)N1CCC[C@@H]1C(=O)N[C@@H](CCCNC(=N)N)C(=O)N[C@@H](Cc1cccnc1)C(=O)N[C@@H](CC1CCCCC1)C(=O)N[C@@H](CC1CCCCC1)C(=O)N[C@@H](CC(N)=O)C(=O)N[C@@H](CC(C)C)C(=O)NC(C)(C)C(=O)N[C@H](C(=O)N[C@@H](CCCNC(=N)N)C(=O)N[C@@H](CCC(N)=O)C(=O)N[C@@H](CCCNC(=N)N)C(=O)N[C@@H](CC1CCCCC1)C(N)=O)[C@@H](C)O) [compound No. 148] | 3.3 | 1.2 |
| Ac-[D-Pro24, Pya(4)26, Ala(4Pip)27, Aib28,31, Lys30, Cha36]-PYY(23-36) [compound No. 308] (Ac-S[dP]R[4Pal][Ala(piperidin-4-yl)][Aib]NK[Aib]TRQR[Cha]-NH2; SMILES CC(=O)N[C@@H](CO)C(=O)N1CCC[C@@H]1C(=O)N[C@@H](CCCNC(=N)N)C(=O)N[C@@H](Cc1ccncc1)C(=O)N[C@@H](CC1CCNCC1)C(=O)NC(C)(C)C(=O)N[C@@H](CC(N)=O)C(=O)N[C@@H](CCCCN)C(=O)NC(C)(C)C(=O)N[C@H](C(=O)N[C@@H](CCCNC(=N)N)C(=O)N[C@@H](CCC(N)=O)C(=O)N[C@@H](CCCNC(=N)N)C(=O)N[C@@H](CC1CCCCC1)C(N)=O)[C@@H](C)O) | 17 | 11 |
| Ac-[D-Pro24, Pya(4)26, Ala(4Pip)27, Aib28,31, Lys30, Cha36]-PYY(23-36) [compound No. 309] (Ac-S[dP]R[4Pal][Ala(piperidin-4-yl)][Aib]NK[Aib]TRQR[Cha]-NH2; SMILES CC(=O)N[C@@H](CO)C(=O)N1CCC[C@@H]1C(=O)N[C@@H](CCCNC(=N)N)C(=O)N[C@@H](Cc1ccncc1)C(=O)N[C@@H](CC1CCNCC1)C(=O)NC(C)(C)C(=O)N[C@@H](CC(N)=O)C(=O)N[C@@H](CCCCN)C(=O)NC(C)(C)C(=O)N[C@H](C(=O)N[C@@H](CCCNC(=N)N)C(=O)N[C@@H](CCC(N)=O)C(=O)N[C@@H](CCCNC(=N)N)C(=O)N[C@@H](CC1CCCCC1)C(N)=O)[C@@H](C)O) | 3.8 | 3.9 |
